Source: patent US20030220247A1

Target: vitamin K-dependent gamma-glutamyl carboxylase
Test: inhibition constant of the propeptide toward the carboxylase; assay not described in the example

## consensus propeptide sequence
  Ki: 0.43 nM
